The target in this test is recombinant, reconstituted histone H3/H4 tetramers (Xenopus laevis, UniProt P84233;P62799). Put plainly: pull-down.

B1: GST-tagged full-length Ioc4 (natural protein)
chain: MSEAIFQPTDIVLAKVKGFSAWPAMIIPNELIPDNILKTKPVSVHKGKSGSDKKANEDIDADMESEARDREQSEEEEDIEDFGESEANPEKFIIYTPVLKFRKNDTLKSTYCVKFFCDDSYIWVKPMDMKILTSEDCRKWLSGKQRKNKKLIPAYEMAMRGKNGIDIWEFVEYGSYGKPDEEEYVEEEEEENEPEKKAIRPTRSSSRQRQKRASETEKSEGGNSNKRKRVTRSTRQQAIDASEEEEEEEEEKVQEAVRKRPQRTKTKKVVVSKTKPNPKTKAKKEKPKPPKPIKYHFEDDEDWSIVGLGPQDLSIEKTMDPIAKKLSQKKNLEKHVEIKLDLEDKLAGINKLLCDVLCSAINQAVSIKDDFEIILDELQIALDTRGSRNEFITIFQSNNSLLLNFRILFNLRKRELNKWDLWDRFQDIFKHIYSYQFIPDTEDWQLEQNMEIEEMDREKPSFSEDVKEEESKVGA
As to B1, the binding result is “binds”.

Values taken from publication doi:10.1101/2021.02.26.432832 (bioRxiv, 2021).
